US20250019438A1 (AstraZeneca / MedImmune, published 2025)

Target: Biotinylated recombinant human CD3εδ (Acro Biosystems, CDD-H82W6) (human) (UniProt P07766)
Test: Octet BLI, biotinylated CD3εδ on streptavidin sensors, 1:1 model

Chain of Biotinylated recombinant human CD3εδ (Acro Biosystems, CDD-H82W6) (human) (P07766 23-126, stated change not applied, chain 1 of 2): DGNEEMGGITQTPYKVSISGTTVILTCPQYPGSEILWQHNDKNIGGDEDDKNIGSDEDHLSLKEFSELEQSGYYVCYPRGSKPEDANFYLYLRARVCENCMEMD
Chain of Biotinylated recombinant human CD3εδ (Acro Biosystems, CDD-H82W6) (human) (P04234 22-105, stated change not applied, chain 2 of 2, further chain): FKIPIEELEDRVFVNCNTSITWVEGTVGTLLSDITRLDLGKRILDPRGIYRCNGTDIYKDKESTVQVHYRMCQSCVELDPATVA

Binder | Kd [nM] | koff [s⁻¹] | kon [M⁻¹ s⁻¹]
EGFR-CD3 DuetMab with anti-CD3 variant AZ Vκ 29 + AZ VH SN75 (bispecific antibody, part only; not given: anti-EGFR arm, constant regions, V domains shown, not shown: another chain or arm of the molecule; a dimerising Fc or GST; small tags and cut ends) VH: EVQLVESGGALVKPGGSLRLSCAASGFTFSNAWMHWVRQAPGKQLEWVAQIKDRSQTYATYYAESVKGRFTISRDDSKNTLYLQMNSLKTEDTAVYYCRGVYYANAPFDYWGQGTLVTVSS VL: DIVMTQSPLSLPVTPGEPASISCRSSQSLVHNTGNTYLSWYLQKPGQSPQSLIYKVSNRASGVPDRFSGSGSGTDFTLKISRVEAEDVGVYYCGQGTQFPFTFGSGTKVEIK | 1010 | 0.0282 | 27900
EGFR-CD3 DuetMab with anti-CD3 variant AZ Vκ 26 + AZ VH R79 (bispecific antibody, part only; not given: anti-EGFR arm, constant regions, V domains shown, not shown: another chain or arm of the molecule; a dimerising Fc or GST; small tags and cut ends) VH: EVQLVESGGALVKPGGSLRLSCAASGFTFTRAWMHWVRQAPGKQLEWVAQIKDRSQTYATYYAESVKGRFTISRDDSKNTLYLQMNSLKTEDTAVYYCRGVYYAVTPFDYWGQGTLVTVSS VL: DIVMTQSPLSLPVTPGEPASISCRSSQSLVHNTGNTYLSWYLQKPGQSPQSLIYKVSNRASGVPDRFSGSGSGTDFTLKISRVEAEDVGVYYCGQGTQAPFSFGSGTKVEIK | 712 | 0.0233 | 32700
EGFR-CD3 DuetMab with anti-CD3 variant AZ Vκ 29 + AZ VH SN82 (bispecific antibody, part only; not given: anti-EGFR arm, constant regions, V domains shown, not shown: another chain or arm of the molecule; a dimerising Fc or GST; small tags and cut ends) VH: EVQLVESGGALVKPGGSLRLSCAASGFTFSNAWMHWVRQAPGKQLEWVAQIKDRSQTYATYYAESVKGRFTISRDDSKNTLYLQMNSLKTEDTAVYYCRGVYYANTPFDYWGQGTLVTVSS VL: DIVMTQSPLSLPVTPGEPASISCRSSQSLVHNTGNTYLSWYLQKPGQSPQSLIYKVSNRASGVPDRFSGSGSGTDFTLKISRVEAEDVGVYYCGQGTQFPFTFGSGTKVEIK | 1860 | 0.0422 | 22700
EGFR-CD3 DuetMab with anti-CD3 variant AZ Vκ 17 + AZ VH SN79 (bispecific antibody, part only; not given: anti-EGFR arm, constant regions, V domains shown, not shown: another chain or arm of the molecule; a dimerising Fc or GST; small tags and cut ends) VH: EVQLVESGGALVKPGGSLRLSCAASGFTFSNAWMHWVRQAPGKQLEWVAQIKDRSQTYATYYAESVKGRFTISRDDSKNTLYLQMNSLKTEDTAVYYCRGVYYAVTPFDYWGQGTLVTVSS VL: DIVMTQSPLSLPVTPGEPASISCRSSQSLVHNTGNTYLSWYLQKPGQSPQSLIYKVSNRASGVPDRFSGSGSGTDFTLKISRVEAEDVGVYYCGQGTQAPFTFGSGTKVEIK | 2050 | 0.032 | 15600
EGFR-CD3 DuetMab with anti-CD3 variant AZ Vκ 26 + AZ VH R75 (bispecific antibody, part only; not given: anti-EGFR arm, constant regions, V domains shown, not shown: another chain or arm of the molecule; a dimerising Fc or GST; small tags and cut ends) VH: EVQLVESGGALVKPGGSLRLSCAASGFTFTRAWMHWVRQAPGKQLEWVAQIKDRSQTYATYYAESVKGRFTISRDDSKNTLYLQMNSLKTEDTAVYYCRGVYYANAPFDYWGQGTLVTVSS VL: DIVMTQSPLSLPVTPGEPASISCRSSQSLVHNTGNTYLSWYLQKPGQSPQSLIYKVSNRASGVPDRFSGSGSGTDFTLKISRVEAEDVGVYYCGQGTQAPFSFGSGTKVEIK | 217 | 0.00605 | 27900
EGFR-CD3 DuetMab with anti-CD3 variant AZ Vκ 29 + AZ VH E82 (bispecific antibody, part only; not given: anti-EGFR arm, constant regions, V domains shown, not shown: another chain or arm of the molecule; a dimerising Fc or GST; small tags and cut ends) VH: EVQLVESGGALVKPGGSLRLSCAASGFTFTEAWMHWVRQAPGKQLEWVAQIKDRSQTYATYYAESVKGRFTISRDDSKNTLYLQMNSLKTEDTAVYYCRGVYYANTPFDYWGQGTLVTVSS VL: DIVMTQSPLSLPVTPGEPASISCRSSQSLVHNTGNTYLSWYLQKPGQSPQSLIYKVSNRASGVPDRFSGSGSGTDFTLKISRVEAEDVGVYYCGQGTQFPFTFGSGTKVEIK | 5000 | 0.0755 | 15100
EGFR-CD3 DuetMab with anti-CD3 variant AZ Vκ 17 + AZ VH E75 (bispecific antibody, part only; not given: anti-EGFR arm, constant regions, V domains shown, not shown: another chain or arm of the molecule; a dimerising Fc or GST; small tags and cut ends) VH: EVQLVESGGALVKPGGSLRLSCAASGFTFTEAWMHWVRQAPGKQLEWVAQIKDRSQTYATYYAESVKGRFTISRDDSKNTLYLQMNSLKTEDTAVYYCRGVYYANAPFDYWGQGTLVTVSS VL: DIVMTQSPLSLPVTPGEPASISCRSSQSLVHNTGNTYLSWYLQKPGQSPQSLIYKVSNRASGVPDRFSGSGSGTDFTLKISRVEAEDVGVYYCGQGTQAPFTFGSGTKVEIK | 2790 | 0.0198 | 7100
EGFR-CD3 DuetMab with anti-CD3 variant AZ Vκ 17 + AZ VH E79 (bispecific antibody, part only; not given: anti-EGFR arm, constant regions, V domains shown, not shown: another chain or arm of the molecule; a dimerising Fc or GST; small tags and cut ends) VH: EVQLVESGGALVKPGGSLRLSCAASGFTFTEAWMHWVRQAPGKQLEWVAQIKDRSQTYATYYAESVKGRFTISRDDSKNTLYLQMNSLKTEDTAVYYCRGVYYAVTPFDYWGQGTLVTVSS VL: DIVMTQSPLSLPVTPGEPASISCRSSQSLVHNTGNTYLSWYLQKPGQSPQSLIYKVSNRASGVPDRFSGSGSGTDFTLKISRVEAEDVGVYYCGQGTQAPFTFGSGTKVEIK | 5620 | 0.0497 | 8850
EGFR-CD3 DuetMab with anti-CD3 variant AZ Vκ 29 + AZ VH SN79 (bispecific antibody, part only; not given: anti-EGFR arm, constant regions, V domains shown, not shown: another chain or arm of the molecule; a dimerising Fc or GST; small tags and cut ends) VH: EVQLVESGGALVKPGGSLRLSCAASGFTFSNAWMHWVRQAPGKQLEWVAQIKDRSQTYATYYAESVKGRFTISRDDSKNTLYLQMNSLKTEDTAVYYCRGVYYAVTPFDYWGQGTLVTVSS VL: DIVMTQSPLSLPVTPGEPASISCRSSQSLVHNTGNTYLSWYLQKPGQSPQSLIYKVSNRASGVPDRFSGSGSGTDFTLKISRVEAEDVGVYYCGQGTQFPFTFGSGTKVEIK | 2670 | 0.114 | 42800
EGFR-CD3 DuetMab with anti-CD3 variant AZ Vκ 17 + AZ VH E82 (bispecific antibody, part only; not given: anti-EGFR arm, constant regions, V domains shown, not shown: another chain or arm of the molecule; a dimerising Fc or GST; small tags and cut ends) VH: EVQLVESGGALVKPGGSLRLSCAASGFTFTEAWMHWVRQAPGKQLEWVAQIKDRSQTYATYYAESVKGRFTISRDDSKNTLYLQMNSLKTEDTAVYYCRGVYYANTPFDYWGQGTLVTVSS VL: DIVMTQSPLSLPVTPGEPASISCRSSQSLVHNTGNTYLSWYLQKPGQSPQSLIYKVSNRASGVPDRFSGSGSGTDFTLKISRVEAEDVGVYYCGQGTQAPFTFGSGTKVEIK | 4610 | 0.033 | 7140
